# Results reported in patent publication US9205136B2, “Human aminoacyl-tRNA synthetase polypeptides useful for the regulation of angiogenesis” (THE SCRIPPS RESEARCH INSTITUTE, priority 2000, dated 2015).
# “Also recorded” adds a separate entry of the source.
# B1: full-length TyrRS: recombinant human tyrosyl-tRNA synthetase, 528 amino acid residues, C-terminal His6 tag (protein)
# chain: MGDAPSPEEKLHLITRNLQEVLGEEKLKEILKERELKIYWGTATTGKPHVAYFVPMSKIADFLKAGCEVTILFADLHAYLDNMKAPWELLELRVSYYENVIKAMLESIGVPLEKLKFIKGTDYQLSKEYTLDVYRLSSVVTQHDSKKAGAEVVKQVEHPLLSGLLYPGLQALDEEYLKVDAQFGGIDQRKIFTFAEKYLPALGYSKRVHLMNPMVPGLTGSKMSSSEEESKIDLLDRKEDVKKKLKKAFCEPGNVENNGVLSFIKHVLFPLKSEFVILRDEKWGGNKTYTAYVDLEKDFAAEVVHPGDLKNSVEVALNKLLDPIREKFNTPALKKLASAAYPDPSKQKPMAKGPAKNSEPEEVIPSRLDIRVGKIITVEKHPDADSLYVEKIDVGEAEPRTVVSGLVQFVPKEELQDRLVVVLCNLKPQKMRGVESQGMLLCASIEGINRQVEPLDPPAGSAPGEHVFVKGYEKGQPDEELKPKKKVFEKLQADFKISEECIAQWKQTNFMTKLGSISCKSLKGGNISLEHHHHHH
# modifications: C-terminal His6 tag; Human full-length TyrRS in pET20B
# notes: recombinant human tyrosyl-tRNA synthetase, 528 amino acid residues, C-terminal His6 tag
# B2: TyrRS carboxyl-terminal domain: residues 359-528 of full-length TyrRS (protein)
# chain: MPEEVIPSRLDIRVGKIITVEKHPDADSLYVEKIDVGEAEPRTVVSGLVQFVPKEELQDRLVVVLCNLKPQKMRGVESQGMLLCASIEGINRQVEPLDPPAGSAPGEHVFVKGYEKGQPDEELKPKKKVFEKLQADFKISEECIAQWKQTNFMTKLGSISCKSLKGGNISLEHHHHHH
# modifications: His6 tag; Human TyrRS carboxyl-terminal domain in pET20B
# notes: residues 359-528 of full-length TyrRS
# B3: E. coli TyrRS: E. coli tyrosyl-tRNA synthetase, similar in size to human mini TyrRS (protein)
# chain: MASSNLIKQLQERGLVAQVTDEEALAERLAQGPIALYCGFDPTADSLHLGHLVPLLCLKRFQQAGHKPVALVGGATGLIGDPSFKAAERKLNTEETVQEWVDKIRKQVAPFLDFDCGENSAIAANNYDWFGNMNVLTFLRDIGKHFSVNQMINKEAVKQRLNREDQGISFTEFSYNLLQGYDFACLNKQYGVVLQIGGSDQWGNITSGIDLTRRLHQNQVFGLTVPLITKADGTKFGKTEGGAVWLDPKKTSPYKFYQFWINTADADVYRFLKFFTFMSIEEINALEEEDKNSGKAPRAQYVLAEQVTRLVHGEEGLQAAKRITECLFSGSLSALSEADFEQLAQDGVPMVEMEKGADLMQALVDSELQPSRGQARKTIASNAITINGEKQSDPEYFFKEEDRLFGRFTLLRRGKKNYCLICWK
# Tests used:
# [1] = test system: MPs; experiment: MP chemotaxis assay (ChemoTX microchemotaxis chamber); format: cell-based, human; details: sample proteins 1 nM, 3 hours
# Experimental: (§1) Cells for the various cytokine assays described were prepared from acid citrate dextrose-treated blood of normal healthy volunteers. Human PMNs were isolated from the blood by centrifugation (700×g) over Histopaque 1077 and 1119 (Sigma). […] This procedure was repeated twice. Human MPs were isolated by centrifugation on Histopaque 1077 (Sigma). The mononuclear fraction was obtained, washed twice in Hanks' balanced salt solution, resuspended in RPMI-1640 medium (Sigma) containing 10% heat-inactivated fetal bovine serum (Sigma), plated in tissue culture flasks, and incubated in a 6% CO2 incubator at 37° C. for 1-2 hours (Kumagai et al., 1979, J. Immunol. Methods 29:17-25). Nonadherent cells were removed by washing the flasks three times with Hanks' balanced salt solution, and adherent cells were harvested by incubation with calcium-magnesium free phosphate-buffered saline containing 2 mM EDTA for 15 minutes at 4° C., followed by extensive washing.
# MP chemotaxis assays were performed in a ChemoTX microchemotaxis chamber (Neuro Probe, Gaithersburg, Md.) containing polycarbonate filters (5 μm pores) with polyvinylpyrrolidone (PVP). MPs were suspended in RPMI-1640 medium containing 1% heat-inactivated fetal bovine serum, and 10^4 cells were added to the upper chamber. Sample proteins (1 nM) were added to the lower compartment of chemotaxis chambers, and the chambers were incubated for 3 hours. After incubation, nonmigrating cells were removed, membranes were fixed in methanol, and migrating cells were visualized with the HEMACOLOR™ stain set (EM Diagnostic Systems, Gibbstown, N.J.). Migrating cells were counted in high-power fields (HPFs). Each determination shown in FIG. 2 represents the average of nine HPF measurements.
# [2] = test system: MPs; experiment: MP TNFα production (ELISA of culture supernatant); format: cell-based, human; details: 1 nM sample protein, 14 hours
# Experimental: as §1
# MP TNFα production was examined following incubation of 10^5 MPs with 1 nM of sample protein for 14 hours. Aliquots of the culture supernatant were then assayed for TNFα production using a TNFα enzyme-linked immunosorbent assay kit (Sigma). Each determination shown in FIG. 2 represents the mean of four measurements from at least three independent experiments.
# [3] = test system: MPs; experiment: MP tissue factor production (Factor VIIa-dependent Factor Xa formation); format: cell-based, human; details: 1 nM sample protein, 4 hours
# Experimental: as §1
# MP tissue factor production was examined following incubation of 10^4 MPs with 1 nM of sample protein for 4 hours. Tissue factor activity was then inferred from measurements of Factor VIIa-dependent Factor Xa formation (Wolfson et al., 1990 J. Chromatogr., 503:277-81). Each determination shown in FIG. 2 represents the mean of four measurements from at least three independent experiments.
# [4] = test system: PMNs; experiment: PMN release of myeloperoxidase; format: cell-based, human; details: 1 nM sample protein, 60 minutes
# Experimental: as §1
# PMN release of myeloperoxidase was examined following incubation of 3×10^6 PMNs per mL with 1 nM of sample protein for 60 minutes. The generation of peroxidase was then measured by the reduction of 3,3′,5,5′-tetramethylbenzidine (Barker et al., 1982, FEBS Lett. 150:419-23). Peroxidase activity is shown in FIG. 3 as the percent of total peroxidase activity where 100% peroxidase activity is defined as the activity observed for 3×10^6 PMNs following exposure to 10 μM phorbol ester for 60 minutes. Each determination shown in FIG. 3 represents the mean of four measurements from at least three independent experiments.
# [5] = test system: PMNs; experiment: PMN chemotaxis assay (ChemoTX microchemotaxis chamber); format: cell-based, human; details: for PMN chemotaxis (PMN migration): sample proteins 1 nM, 45 min
# Experimental: as §1
# PMN chemotaxis assays were performed in a ChemoTX microchemotaxis chamber (described herein). Sample proteins (1 nM) were added to the lower compartment of chemotaxis chambers, and 10^4 PMNs were added to the upper compartment. Chambers were incubated for 45 min, and migrating cells were counted in HPFs. Each determination shown in FIG. 2 represents the average of nine HPF measurements.
# [6] = test system: PMNs; experiment: 125I-human mini TyrRS binding and competition assay on PMNs; details: 10 nM 125I-mini TyrRS, 200-fold molar excess of unlabeled ligand, on ice 2 hours
# Experimental: The interaction of human mini TyrRS and PMNs was examined in binding studies using radioiodinated TyrRS molecules (Moser et al., 1993, J. Biol. Chem. 268:7125-28). Custom radioiodination of mini TyrRS with was performed by Research & Diagnostic Antibody (Richmond, Calif.). In the binding assays, 2×10^6 PMNs were first suspended in 120 μl of RPMI-1640 medium containing 20 mM Hepes (pH 7.4) and 10 mg/ml bovine serum albumin. […] Following incubation, cells were separated from unbound radioactivity by centrifugation at approximately 8000×g for 2 minutes through 500 μL, of a 10% sucrose/phosphate-buffered saline (PBS) cushion. The supernatant was aspirated, and the cell sediment was resuspended using EcoLite (ICN Biomedicals, Irvine, Calif.) and analyzed in a scintillation counter.
# Following incubation, cells were separated from unbound radioactivity as described herein.
# [7] = test system: human umbilical vein endothelial cells (HUVECs); experiment: HUVEC migration assay (modified Boyden chamber); format: cell-based; details: 50 nM TyrRS molecule or 0.5 nM VEGF165, 6 hours
# Experimental: In contrast, α-chemokines lacking the ELR motif act as angiostatic factors (id.). In order to evaluate the angiogenic activity of TyrRS, which contains the ELR motif, human full-length TyrRS and human mini TyrRS were first examined for their ability to induce endothelial cell migration. Such angiogenic assays were performed using human umbilical vein endothelial cells (HUVECs) (Clonetics, Walkersville, Md.). Cells were maintained in EGM-2® BULLETKIT® medium (Clonetics) in an atmosphere of 6% CO2 at 37° C. according to the supplier's instructions.
# Cell migration assays were performed using the modified Boyden chamber (6.5 mm Transwells) with polycarbonate membranes (8.0 μm pore size) (Costar Corp., Cambridge, Mass.) (Masood et al., 1999, Blood 93:1038-44). Wells were coated overnight with 25 μg/mL human fibronectin (Biosource International, Camarillo, Calif.) in PBS and then allowed to air-dry. HUVECs were suspended in Dulbecco's modified Eagle's medium (DMEM) (Gibco-BRL, Gaithersburg, Md.) containing 0.1% BSA (Sigma) and 2×10^5 cells per well were added to the upper chamber. The chemotactic stimulus (50 nM of a given TyrRS molecule or 0.5 nM of human vascular endothelial growth factor-165 (VEGF165) (Biosource International, Camarillo, Calif.)) was placed in the lower chamber, and the cells were allowed to migrate for 6 hours at 37° C. in a 6% CO2 incubator. After incubation, non-migrant cells were removed from the upper face of the Transwell membrane with a cotton swab and migrant cells, those attached to the lower face, were fixed in methanol and visualized with the HEMACOLOR® stain set (EM Diagnostic Systems, Gibbstown, N.J.). Migrating cells were counted in high-power fields (HPFs). HUVECs were suspended in media with the inhibitor for 30 minutes before placement in the chamber. Each determination shown in FIG. 16 represents the average of nine HPF measurements.
inhibition of 125I-mini TyrRS binding to PMNs by unlabeled ligand [6],Molecule,MP chemotaxis (MP migration) [1],MP TNFα production [2],MP tissue factor production [3],PMN release of myeloperoxidase [4],PMN chemotaxis (PMN migration) [5],HUVEC chemotaxis [7],concentration dependence of PMN migration [5]
did not inhibit the binding,B1,no chemotaxis was observed,none of the properties observed for the carboxyl-terminal domain,none of the properties observed for the carboxyl-terminal domain,none of the properties observed for the carboxyl-terminal domain,none of the properties observed for the carboxyl-terminal domain,no chemotaxis was observed,–
did not inhibit the binding,B3,inactive in all of the assays,inactive in all of the assays,inactive in all of the assays,inactive in all of the assays,inactive in all of the assays; also recorded: no chemotaxis was observed,–,–

Molecule,inhibition of 125I-mini TyrRS binding to PMNs by unlabeled ligand [6],MP chemotaxis (MP migration) [1],MP TNFα production [2],MP tissue factor production [3],PMN release of myeloperoxidase [4],PMN chemotaxis (PMN migration) [5],HUVEC chemotaxis [7],concentration dependence of PMN migration [5]
B2,neither the TyrRS carboxyl-terminal domain nor EMAP II inhibited,induced MP migration to an extent comparable with that observed for EMAP II,stimulated production,stimulated production,induced the release of myeloperoxidase in PMNs,induced PMN migration,–,bell-shaped concentration dependence
